Results published in article PMC10397247.
Each block holds one binder with its values, some of them ahead of it.

How the values were obtained:
4H908-bH = biological target: T1, 4H908-bH; test: two-hybrid library CCNG1;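 further: natural log of median RNA to DNA barcode read ratio; higher means stronger binding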
T1 chain: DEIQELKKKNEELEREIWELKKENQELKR

4H883-bH = biological target: T2, 4H883-bH; test: two-hybrid library CCNG1;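 further: natural log of median RNA to DNA barcode read ratio; higher means stronger binding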
T2 chain: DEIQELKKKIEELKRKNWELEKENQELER

4H918-bH = biological target: T3, 4H918-bH; test: two-hybrid library CCNG1;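 further: natural log of median RNA to DNA barcode read ratio; higher means stronger binding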
T3 chain: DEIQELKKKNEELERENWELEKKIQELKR

4H967-bH = biological target: T4, 4H967-bH; test: two-hybrid library CCNG1;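 further: natural log of median RNA to DNA barcode read ratio; higher means stronger binding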
T4 chain: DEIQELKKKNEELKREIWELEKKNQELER

4H953-bH = biological target: T5, 4H953-bH; test: two-hybrid library CCNG1
T5 chain: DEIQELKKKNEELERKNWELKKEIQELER

4H906-bH = biological target: T6, 4H906-bH; test: two-hybrid library CCNG1
T6 chain: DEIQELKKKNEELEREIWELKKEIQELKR

4H850-bH = biological target: T7, 4H850-bH; test: two-hybrid library CCNG1
T7 chain: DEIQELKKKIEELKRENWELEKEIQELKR

4H3920-AA = biological target: T8, 4H3920-AA; test: two-hybrid library CCmax; conditions: mean of both orientations
T8 chain: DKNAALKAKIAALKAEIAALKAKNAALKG

4H391-AA = biological target: T9, 4H391-AA; test: two-hybrid library CCmax
T9 chain: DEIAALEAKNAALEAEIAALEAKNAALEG

4H497-AA = biological target: T10, 4H497-AA; test: two-hybrid library CCmax; conditions: mean of both orientations
T10 chain: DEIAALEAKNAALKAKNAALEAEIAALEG

4H478-AA = biological target: T11, 4H478-AA; test: two-hybrid library CCmax; conditions: mean of both orientations
T11 chain: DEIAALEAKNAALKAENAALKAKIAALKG

4H971-AA = biological target: T12, 4H971-AA; test: two-hybrid library CCmax; conditions: mean of both orientations
T12 chain: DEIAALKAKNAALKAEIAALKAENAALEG

4H3939-AA = biological target: T13, 4H3939-AA; test: two-hybrid library CCmax; conditions: mean of both orientations
T13 chain: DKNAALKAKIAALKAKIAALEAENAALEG

4H428-AA = biological target: T14, 4H428-AA; test: two-hybrid library CCmax; conditions: mean of both orientations
T14 chain: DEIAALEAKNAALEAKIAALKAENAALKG

4H675-AA = biological target: T15, 4H675-AA; test: two-hybrid library CCmax; conditions: mean of both orientations
T15 chain: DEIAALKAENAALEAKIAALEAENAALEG

4H656-AA = biological target: T16, 4H656-AA; test: two-hybrid library CCmax; conditions: mean of both orientations
T16 chain: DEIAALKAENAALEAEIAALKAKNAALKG

4H72-bH = biological target: T17, 4H72-bH; test: two-hybrid library CCNG1
T17 chain: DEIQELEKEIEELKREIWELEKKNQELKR

4H797-bH = biological target: T18, 4H797-bH; test: two-hybrid library CCNG1
T18 chain: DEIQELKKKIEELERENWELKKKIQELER

4H754-bH = biological target: T19, 4H754-bH; test: two-hybrid library CCNG1
T19 chain: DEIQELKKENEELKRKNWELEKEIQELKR

APC9291-AA = biological target: T20, APC9291-AA; test: two-hybrid library CCmax; conditions: mean of both orientations
T20 chain: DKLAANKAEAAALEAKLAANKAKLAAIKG

APC9806-AA = biological target: T21, APC9806-AA; test: two-hybrid library CCmax; conditions: mean of both orientations
T21 chain: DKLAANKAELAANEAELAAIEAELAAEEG

APC9182-AA = biological target: T22, APC9182-AA; test: two-hybrid library CCmax
T22 chain: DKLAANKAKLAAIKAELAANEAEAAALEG

interaction score (4H908-bH): -0.306 | interaction score (4H883-bH): 0.33 | interaction score (4H918-bH): -0.51 | interaction score (4H967-bH): -0.709 | interaction score (4H953-bH): -0.831
Binder: DEIQELKKKIEELKRKNWELEKENQELER [4H883-bH]

interaction score (4H908-bH): 0.057 | interaction score (4H918-bH): -2.03 | interaction score (4H967-bH): -0.426 | interaction score (4H953-bH): -0.842
Binder: DEIQELKKKNEELEREIWELKKENQELKR [4H908-bH]

interaction score (4H906-bH): -0.227 | interaction score (4H850-bH): 0.554
Binder: DEIQELKKKIEELKRENWELEKEIQELKR [4H850-bH]

interaction score (4H3920-AA): -1.23 | interaction score (4H391-AA): -1.79 | interaction score (4H497-AA): -2 | interaction score (4H478-AA): -1.59 | interaction score (4H971-AA): -1.02 | interaction score (4H3939-AA): -1.7 | interaction score (4H428-AA): -0.212 | interaction score (4H675-AA): -1.11 | interaction score (4H656-AA): -0.583
Binder: DEIAALEAKNAALEAEIAALEAKNAALEG [4H391-AA]

interaction score (4H72-bH): 0.746 | interaction score (4H797-bH): 0 | interaction score (4H908-bH): 0.614 | interaction score (4H883-bH): 1.69 | interaction score (4H918-bH): 0.163 | interaction score (4H967-bH): 0.0764 | interaction score (4H953-bH): 0.653 | interaction score (4H754-bH): -0.378
Binder: DEIQELEKEIEELKREIWELEKKNQELKR [4H72-bH]

interaction score (APC9291-AA): -1.98 | interaction score (APC9806-AA): -1.59 | interaction score (APC9182-AA): -1.77
Binder: DKLAANKAKLAAIKAELAANEAEAAALEG [APC9182-AA]
